Results on 43 molecules are retold here after patent US20220040297A1 (Chugai, published 2022).

Substitutions are numbered along the chain they refer to.

To fix the notation:
B1: GLS3000 S25P (antibody, name in Kabat numbering, V domains shown)
VH: QVQLVESGGGVVQPGRSLRLSCAASGFTFSNAWMHWVRQAPGKGLEWVAQIKAKSNNYATYYAESVKGRFTISRDDSKNSLYLQMNSLKTEDTAVYYCRYVHYGAYYGVDAWGQGTTVTVSS
VL: DIVMTQSPLSLPVTPGEPASISCRPSQSLVHSNRNTYLHWYQQKPGQAPRLLIYKVSNRFSGVPDRFSGSGSGTDFTLKISRVEAEDVGVYYCGQGTQVPYTFGQGTKLEIK
notes: one-arm format as m2
B2: GLS3000 S26D (antibody, name in Kabat numbering, V domains shown)
VH: B1 VH
VL: B1 VL with P25S, S26D
notes: one-arm format as m2
B3: GLS3000 S27eD (antibody, name in Kabat numbering, V domains shown)
VH: B1 VH
VL: B1 VL with P25S, S32D
notes: one-arm format as m2
B4: GLS3000 S27aY (antibody, name in Kabat numbering, V domains shown)
VH: B1 VH
VL: B1 VL with P25S, S28Y
notes: one-arm format as m2
B5: GLS3000 S25T (antibody, name in Kabat numbering, V domains shown)
VH: B1 VH
VL: B1 VL with P25T
notes: one-arm format as m2
B6: GLS3000 S56F (antibody, name in Kabat numbering, V domains shown)
VH: B1 VH
VL: B1 VL with P25S, S61F
notes: one-arm format as m2
B7: GLS3000 S27aI (antibody, name in Kabat numbering, V domains shown)
VH: B1 VH
VL: B1 VL with P25S, S28I
notes: one-arm format as m2
B8: GLS3000 S56A (antibody, name in Kabat numbering, V domains shown)
VH: B1 VH
VL: B1 VL with P25S, S61A
notes: one-arm format as m2
B9: GLS3000 S56E (antibody, name in Kabat numbering, V domains shown)
VH: B1 VH
VL: B1 VL with P25S, S61E
notes: one-arm format as m2
B10: GLS3000 S27aE (antibody, name in Kabat numbering, V domains shown)
VH: B1 VH
VL: B1 VL with P25S, S28E
notes: one-arm format as m2
B11: GLS3000 S25V (antibody, name in Kabat numbering, V domains shown)
VH: B1 VH
VL: B1 VL with P25V
notes: one-arm format as m2
B12: GLS3000 S27eR (antibody, name in Kabat numbering, V domains shown)
VH: B1 VH
VL: B1 VL with P25S, S32R
notes: one-arm format as m2
B13: GLS3000 S52A (antibody, name in Kabat numbering, V domains shown)
VH: B1 VH
VL: B1 VL with P25S, S57A
notes: one-arm format as m2
B14: GLS3000 S27eP (antibody, name in Kabat numbering, V domains shown)
VH: B1 VH
VL: B1 VL with P25S, S32P
notes: one-arm format as m2
B15: GLS3000 S27aN (antibody, name in Kabat numbering, V domains shown)
VH: B1 VH
VL: B1 VL with P25S, S28N
notes: one-arm format as m2
B16: GLS3000 S56K (antibody, name in Kabat numbering, V domains shown)
VH: B1 VH
VL: B1 VL with P25S, S61K
notes: one-arm format as m2
B17: GLS3000 S26E (antibody, name in Kabat numbering, V domains shown)
VH: B1 VH
VL: B1 VL with P25S, S26E
notes: one-arm format as m2
B18: GLS3000 S27eH (antibody, name in Kabat numbering, V domains shown)
VH: B1 VH
VL: B1 VL with P25S, S32H
notes: one-arm format as m2
B19: GLS3000 S27eW (antibody, name in Kabat numbering, V domains shown)
VH: B1 VH
VL: B1 VL with P25S, S32W
notes: one-arm format as m2
B20: GLS3000 S27eL (antibody, name in Kabat numbering, V domains shown)
VH: B1 VH
VL: B1 VL with P25S, S32L
notes: one-arm format as m2
B21: GLS3000 S27eF (antibody, name in Kabat numbering, V domains shown)
VH: B1 VH
VL: B1 VL with P25S, S32F
notes: one-arm format as m2
B22: GLS3000 S27aP (antibody, name in Kabat numbering, V domains shown)
VH: B1 VH
VL: B1 VL with P25S, S28P
notes: one-arm format as m2
B23: GLS3000 S27eI (antibody, name in Kabat numbering, V domains shown)
VH: B1 VH
VL: B1 VL with P25S, S32I
notes: one-arm format as m2
B24: GLS3000 S56D (antibody, name in Kabat numbering, V domains shown)
VH: B1 VH
VL: B1 VL with P25S, S61D
notes: one-arm format as m2
B25: GLS3000 S52D (antibody, name in Kabat numbering, V domains shown)
VH: B1 VH
VL: B1 VL with P25S, S57D
notes: one-arm format as m2
B26: GLS3000 S27aD (antibody, name in Kabat numbering, V domains shown)
VH: B1 VH
VL: B1 VL with P25S, S28D
notes: one-arm format as m2
B27: GLS3000 S27eT (antibody, name in Kabat numbering, V domains shown)
VH: B1 VH
VL: B1 VL with P25S, S32T
notes: one-arm format as m2
B28: GLS3000 S27eY (antibody, name in Kabat numbering, V domains shown)
VH: B1 VH
VL: B1 VL with P25S, S32Y
notes: one-arm format as m2
B29: GLS3000 S27eK (antibody, name in Kabat numbering, V domains shown)
VH: B1 VH
VL: B1 VL with P25S, S32K
notes: one-arm format as m2
B30: GLS3000 S52P (antibody, name in Kabat numbering, V domains shown)
VH: B1 VH
VL: B1 VL with P25S, S57P
notes: one-arm format as m2
B31: GLS3000 S52Q (antibody, name in Kabat numbering, V domains shown)
VH: B1 VH
VL: B1 VL with P25S, S57Q
notes: one-arm format as m2
B32: GLS3000 S27eV (antibody, name in Kabat numbering, V domains shown)
VH: B1 VH
VL: B1 VL with P25S, S32V
notes: one-arm format as m2
B33: GLS3000 S52Y (antibody, name in Kabat numbering, V domains shown)
VH: B1 VH
VL: B1 VL with P25S, S57Y
notes: one-arm format as m2
B34: GLS3000 S26P (antibody, name in Kabat numbering, V domains shown)
VH: B1 VH
VL: B1 VL with P25S, S26P
notes: one-arm format as m2
B35: GLS3000 S56H (antibody, name in Kabat numbering, V domains shown)
VH: B1 VH
VL: B1 VL with P25S, S61H
notes: one-arm format as m2
B36: GLS3000 S27eE (antibody, name in Kabat numbering, V domains shown)
VH: B1 VH
VL: B1 VL with P25S, S32E
notes: one-arm format as m2
B37: GLS3000 S56I (antibody, name in Kabat numbering, V domains shown)
VH: B1 VH
VL: B1 VL with P25S, S61I
notes: one-arm format as m2
B38: GLS3000 S27eG (antibody, name in Kabat numbering, V domains shown)
VH: B1 VH
VL: B1 VL with P25S, S32G
notes: one-arm format as m2
B39: GLS3000 S27eN (antibody, name in Kabat numbering, V domains shown)
VH: B1 VH
VL: B1 VL with P25S, S32N
notes: one-arm format as m2
B40: GLS3000 S56G (antibody, name in Kabat numbering, V domains shown)
VH: B1 VH
VL: B1 VL with P25S, S61G
notes: one-arm format as m2
B41: GLS3000 S27eM (antibody, name in Kabat numbering, V domains shown)
VH: B1 VH
VL: B1 VL with P25S, S32M
notes: one-arm format as m2
B42: GLS3000 S27eQ (antibody, name in Kabat numbering, V domains shown)
VH: B1 VH
VL: B1 VL with P25S, S32Q
notes: one-arm format as m2
B43: GLS3000 S27aG (antibody, name in Kabat numbering, V domains shown)
VH: B1 VH
VL: B1 VL with P25S, S28G
notes: one-arm format as m2

The target of the assay is CD3ε homodimer protein (human, UniProt P07766 23-126, limits assumed). The assay is described as follows: SPR, immobilized CD3ε homodimer.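 Further: biacore T200 surface plasmon resonance at 25 °C, antibody variants flowed as analytes over amine-coupled CD3ε homodimer on a CM4 chip, variant binding amount divided by that of GLS3000 antibody.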
Chain of CD3ε homodimer protein (P07766 23-126 limits assumed): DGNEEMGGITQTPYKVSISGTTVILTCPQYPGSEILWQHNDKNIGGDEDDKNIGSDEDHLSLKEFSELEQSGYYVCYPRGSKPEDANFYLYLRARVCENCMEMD
Take B1: the “ratio of amounts bound (vs GLS3000)” value worked out at 1.01.

In the case of B2, the “ratio of amounts bound (vs GLS3000)” value is 0.86.

On to B3, for which the “ratio of amounts bound (vs GLS3000)” value was found to be 0.69.

On to B4, for which the “ratio of amounts bound (vs GLS3000)” value was found to be 1.1.

B5: the “ratio of amounts bound (vs GLS3000)” value is 0.83.

As to B6, the “ratio of amounts bound (vs GLS3000)” value was 1.32.

Take B7: the “ratio of amounts bound (vs GLS3000)” value came out at 1.

As to B8, the “ratio of amounts bound (vs GLS3000)” value stood at 1.16.

With B9, the “ratio of amounts bound (vs GLS3000)” value came to 0.71.

As to B10, the “ratio of amounts bound (vs GLS3000)” value stood at 0.81.

In the case of B11, the “ratio of amounts bound (vs GLS3000)” value is 0.73.

Take B12: the “ratio of amounts bound (vs GLS3000)” value was found to be 1.58.

On to B13, for which the “ratio of amounts bound (vs GLS3000)” value came out at 0.93.

Consider B14, for which the “ratio of amounts bound (vs GLS3000)” value stood at 1.26.

Regarding B15, the “ratio of amounts bound (vs GLS3000)” value was found to be 1.1.

Take B16: the “ratio of amounts bound (vs GLS3000)” value is 1.46.

Turning to B17, the “ratio of amounts bound (vs GLS3000)” value turned out to be 0.74.

For B18, the “ratio of amounts bound (vs GLS3000)” value turned out to be 1.23.

For B19, the “ratio of amounts bound (vs GLS3000)” value turned out to be 1.55.

Consider B20, for which the “ratio of amounts bound (vs GLS3000)” value came to 1.17.

For the molecule B21, the “ratio of amounts bound (vs GLS3000)” value stood at 1.32.

On to B22, for which the “ratio of amounts bound (vs GLS3000)” value came out at 0.99.

Turning to B23, the “ratio of amounts bound (vs GLS3000)” value was 1.07.

B24: the “ratio of amounts bound (vs GLS3000)” value was found to be 0.77.

As to B25, the “ratio of amounts bound (vs GLS3000)” value was 0.63.

B26: the “ratio of amounts bound (vs GLS3000)” value was found to be 0.79.

For the molecule B27, the “ratio of amounts bound (vs GLS3000)” value worked out at 0.97.

As for B28, the “ratio of amounts bound (vs GLS3000)” value turned out to be 1.2.

In the case of B29, the “ratio of amounts bound (vs GLS3000)” value was determined as 1.59.

For the molecule B30, the “ratio of amounts bound (vs GLS3000)” value came to 0.33.

For B31, the “ratio of amounts bound (vs GLS3000)” value worked out at 1.05.

B32: the “ratio of amounts bound (vs GLS3000)” value is 1.08.

On to B33, for which the “ratio of amounts bound (vs GLS3000)” value amounted to 1.12.

Regarding B34, the “ratio of amounts bound (vs GLS3000)” value worked out at 0.78.

With B35, the “ratio of amounts bound (vs GLS3000)” value was found to be 1.05.

In the case of B36, the “ratio of amounts bound (vs GLS3000)” value is 0.76.

Regarding B37, the “ratio of amounts bound (vs GLS3000)” value is 0.99.

Regarding B38, the “ratio of amounts bound (vs GLS3000)” value amounted to 1.04.

With B39, the “ratio of amounts bound (vs GLS3000)” value turned out to be 1.16.

Take B40: the “ratio of amounts bound (vs GLS3000)” value is 0.92.

For the molecule B41, the “ratio of amounts bound (vs GLS3000)” value amounted to 1.23.

B42: the “ratio of amounts bound (vs GLS3000)” value was 1.1.

On to B43, for which the “ratio of amounts bound (vs GLS3000)” value turned out to be 1.03.
